Reference: IntAct's records for PubMed 19081061

B1: Pyruvate dehydrogenase E1 component subunit alpha, somatic form, mitochondrial (Homo sapiens), P08559-1 (parent)
chain: MRKMLAAVSRVLSGASQKPASRVLVASRNFANDATFEIKKCDLHRLEEGPPVTTVLTREDGLKYYRMMQTVRRMELKADQLYKQKIIRGFCHLCDGQEACCVGLEAGINPTDHLITAYRAHGFTFTRGLSVREILAELTGRKGGCAKGKGGSMHMYAKNFYGGNGIVGAQVPLGAGIALACKYNGKDEVCLTLYGDGAANQGQIFEAYNMAALWKLPCIFICENNRYGMGTSVERAAASTDYYKRGDFIPGLRVDGMDILCVREATRFAAAYCRSGKGPILMELQTYRYHGHSMSDPGVSYRTREEIQEVRSKSDPIMLLKDRMVNSNLASVEELKEIDVEVRKEIEDAAQFATADPEPPLEELGYHIYSSDPPFEVRGANQWIKFKSVS
partner: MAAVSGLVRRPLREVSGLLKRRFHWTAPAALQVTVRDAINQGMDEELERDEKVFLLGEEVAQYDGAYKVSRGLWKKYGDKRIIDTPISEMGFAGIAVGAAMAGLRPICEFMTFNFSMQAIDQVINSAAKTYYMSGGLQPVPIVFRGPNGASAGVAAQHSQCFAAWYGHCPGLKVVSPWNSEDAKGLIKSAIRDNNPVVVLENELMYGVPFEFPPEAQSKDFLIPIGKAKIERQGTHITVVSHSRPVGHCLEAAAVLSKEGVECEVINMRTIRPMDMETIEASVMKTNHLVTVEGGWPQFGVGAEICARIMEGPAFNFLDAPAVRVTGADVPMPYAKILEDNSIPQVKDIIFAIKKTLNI

Variants of: B1
Conditions: with PDHB

Row | Variant | effect of a mutation on the interaction
1 | MRKMLAAVSRVLSGASQKPASRVLVASRNFANDATFEIKKCDLHRLEEGPPVTTVLTREDGLKYYRMMQTVRRMELKADQLYKQKIIRGFCHLCDGQEACCVGLEAGINPTDHLITAFRAHGFTFTRGLSVREILAELTGRKGGCAKGKGGSMHMYAKNFYGGNGIVGAQVPLGAGIALACKYNGKDEVCLTLYGDGAANQGQIFEAYNMAALWKLPCIFICENNRYGMGTSVERAAASTDYYKRGDFIPGLRVDGMDILCVREATRFAAAYCRSGKGPILMELQTYRYHGHSMSDPGVSYRTREEIQEVRSKSDPIMLLKDRMVNSNLASVEELKEIDVEVRKEIEDAAQFATADPEPPLEELGYHIYSSDPPFEVRGANQWIKFKSVS [Y118F] | with no effect
2 | MRKMLAAVSRVLSGASQKPASRVLVASRNFANDATFEIKKCDLHRLEEGPPVTTVLTREDGLKYYRMMQTVRRMELKADQLYKQKIIRGFCHLCDGQEACCVGLEAGINPTDHLITAYRAHGFTFTRGLSVREILAELTGRKGGCAKGKGGSMHMYAKNFYGGNGIVGAQVPLGAGIALACKYNGKDEVCLTLYGDGAANQGQIFEAYNMAALWKLPCIFICENNRYGMGTAVERAAASTDYYKRGDFIPGLRVDGMDILCVREATRFAAAYCRSGKGPILMELQTYRYHGHSMSDPGVAYRTREEIQEVRSKSDPIMLLKDRMVNSNLASVEELKEIDVEVRKEIEDAAQFATADPEPPLEELGYHIYSSDPPFEVRGANQWIKFKSVS [S232A;S300A] | with no effect
